Assay results as given in article PMC10684826.
Where two headings read alike, the source gives them in different places.

Key:
Assay in all cases: EMSA
[1] = biological target: T1, SheSSB (Staphylothermus hellenicus DSM 12710, UniProt D7D8N7 1-151)
T1 sequence: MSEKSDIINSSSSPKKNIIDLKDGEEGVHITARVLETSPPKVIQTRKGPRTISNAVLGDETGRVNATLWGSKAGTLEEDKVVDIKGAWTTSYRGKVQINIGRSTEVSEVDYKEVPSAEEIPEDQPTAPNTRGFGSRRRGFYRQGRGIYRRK

[2] = biological target: T2, SacSSB (Sulfolobus acidocaldarius DSM 639, UniProt Q4JA43 1-146)
T2 sequence: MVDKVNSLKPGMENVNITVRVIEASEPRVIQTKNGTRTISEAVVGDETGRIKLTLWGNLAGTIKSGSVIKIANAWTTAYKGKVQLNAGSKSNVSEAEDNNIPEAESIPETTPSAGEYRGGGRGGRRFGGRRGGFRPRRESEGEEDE

[3] = biological target: T3, AhoSSB (Acidianus hospitalis W1, UniProt F4B912 1-142)
T3 sequence: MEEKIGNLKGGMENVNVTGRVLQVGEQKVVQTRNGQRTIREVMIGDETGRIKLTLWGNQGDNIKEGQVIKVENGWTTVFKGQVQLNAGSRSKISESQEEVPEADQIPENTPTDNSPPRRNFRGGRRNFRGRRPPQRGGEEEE

[4] = biological target: EcoSSB (Escherichia coli, UniProt P0AGE0 1-178)
[5] = biological target: T4, SisSSB deltaC53 (Saccharolobus islandicus REY15A, UniProt F0NBA9 1-95)
T4 sequence: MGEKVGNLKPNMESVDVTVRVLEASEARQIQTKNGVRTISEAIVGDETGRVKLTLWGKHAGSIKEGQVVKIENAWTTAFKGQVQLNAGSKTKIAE

[6] = biological target: T5, SisSSB deltaC29 (Saccharolobus islandicus REY15A, UniProt F0NBA9 1-119)
T5 sequence: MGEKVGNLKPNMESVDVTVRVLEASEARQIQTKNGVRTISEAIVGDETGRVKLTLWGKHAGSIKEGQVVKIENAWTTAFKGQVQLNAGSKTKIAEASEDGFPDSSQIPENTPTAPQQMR

[7] = biological target: T1, SheSSB; remark: listed apart in the source
[8] = biological target: T2, SacSSB; remark: listed apart in the source
[9] = biological target: T3, AhoSSB; remark: listed apart in the source

Measured: binding result

Chain of EcoSSB (P0AGE0 whole entry): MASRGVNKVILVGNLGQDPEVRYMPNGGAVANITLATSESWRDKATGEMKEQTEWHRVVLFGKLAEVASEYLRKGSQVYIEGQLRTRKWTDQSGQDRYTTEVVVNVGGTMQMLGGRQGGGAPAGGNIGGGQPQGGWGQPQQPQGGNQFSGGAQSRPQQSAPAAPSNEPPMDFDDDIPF

B1: Fam-ssDNA 40 nt (ssDNA)
DNA: AGGGTTCTTTGTGGCGGCGTCATCTGTGCTTCCCTATCCA
not listed: [7] | [8] | [9]
binds: all other assays above

B2: Fam-ssRNA 40 nt (ssRNA)
RNA: AGGGUUCUUUGUGGCGGCGUCAUCUGUGCUUCCCUAUCCA
binds: [7] | [8] | [9] | [5] | [6]
